In this data set the test system is Escherichia coli TOP10. Nature of the data set: shrunken log2 fold change of peptide-encoding DNA abundance (4.5 h post-induction vs induction); higher = less antimicrobial activity (less host growth inhibition). The note with it: time post-induction: 4.5 h; library: site-saturation at positions 5, 18, 19, 20.
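Note: peptides expressed intracellularly from a pBAD plasmid library in pooled LB shake-flask culture, induced with 0.3% L-arabinose, DNA abundance read by NGS, three biological replicates, DESeq2 with apeglm shrinkage.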

For the sequence RRIRTRPPRLPRPRPRPSRWPRP, the “shrunken log2 fold change” value amounted to 0.0135.

On to RRIRGRPPRLPRPRPRPGDYPRP, for which the “shrunken log2 fold change” value is 0.199.

On to RRIRPRPPRLPRPRPRPTGQPRP, for which the “shrunken log2 fold change” value was determined as 0.152.

RRIRSRPPRLPRPRPRPHCHPRP: the “shrunken log2 fold change” value is -0.783.

As to RRIRRRPPRLPRPRPRPHKAPRP, the “shrunken log2 fold change” value came to 0.434.

For RRIRPRPPRLPRPRPRPRVTPRP, the “shrunken log2 fold change” value stood at 0.326.

Turning to RRIRFRPPRLPRPRPRPEKGPRP, the “shrunken log2 fold change” value amounted to 0.0184.

As to RRIRRRPPRLPRPRPRPHYDPRP, the “shrunken log2 fold change” value is -0.124.

With RRIRCRPPRLPRPRPRPEWEPRP, the “shrunken log2 fold change” value is -0.00663.

For RRIRPRPPRLPRPRPRPVPTPRP, the “shrunken log2 fold change” value is 0.424.

Regarding RRIRFRPPRLPRPRPRPEGYPRP, the “shrunken log2 fold change” value came to 0.0525.

On to RRIRDRPPRLPRPRPRPNPSPRP, for which the “shrunken log2 fold change” value is 0.13.

Turning to RRIRIRPPRLPRPRPRPWLQPRP, the “shrunken log2 fold change” value worked out at 0.0391.

As to RRIRGRPPRLPRPRPRPIFGPRP, the “shrunken log2 fold change” value was -0.0743.

On to RRIRWRPPRLPRPRPRPSMCPRP, for which the “shrunken log2 fold change” value is -0.16.

Turning to RRIRTRPPRLPRPRPRPLHMPRP, the “shrunken log2 fold change” value was -0.369.

RRIRSRPPRLPRPRPRPPPVPRP: the “shrunken log2 fold change” value turned out to be 0.745.

For RRIRYRPPRLPRPRPRPALDPRP, the “shrunken log2 fold change” value is -0.132.

On to RRIRDRPPRLPRPRPRPTDKPRP, for which the “shrunken log2 fold change” value was -0.118.

For RRIRDRPPRLPRPRPRPGMRPRP, the “shrunken log2 fold change” value stood at 1.02.

With RRIRTRPPRLPRPRPRPQALPRP, the “shrunken log2 fold change” value is 0.231.

For RRIRGRPPRLPRPRPRPVTTPRP, the “shrunken log2 fold change” value is 1.21.

Take RRIRCRPPRLPRPRPRPMITPRP: the “shrunken log2 fold change” value was -0.0256.

Consider RRIRPRPPRLPRPRPRPDLDPRP, for which the “shrunken log2 fold change” value turned out to be 0.114.

On to RRIRMRPPRLPRPRPRPFRQPRP, for which the “shrunken log2 fold change” value is 0.0135.

Turning to RRIRNRPPRLPRPRPRPYHNPRP, the “shrunken log2 fold change” value was -0.275.

As to RRIRWRPPRLPRPRPRPDIAPRP, the “shrunken log2 fold change” value amounted to 0.0944.

In the case of RRIRKRPPRLPRPRPRPYLPPRP, the “shrunken log2 fold change” value is -0.354.

On to RRIRDRPPRLPRPRPRPNWPPRP, for which the “shrunken log2 fold change” value amounted to 0.0913.

In the case of RRIRYRPPRLPRPRPRPLCWPRP, the “shrunken log2 fold change” value was -0.264.

Consider RRIRQRPPRLPRPRPRPSTDPRP, for which the “shrunken log2 fold change” value is -0.468.

With RRIRRRPPRLPRPRPRPYYKPRP, the “shrunken log2 fold change” value was -0.677.

For RRIRWRPPRLPRPRPRPYRPPRP, the “shrunken log2 fold change” value is -0.573.

Turning to RRIRVRPPRLPRPRPRPWRDPRP, the “shrunken log2 fold change” value stood at 0.202.

As to RRIRRRPPRLPRPRPRPVPHPRP, the “shrunken log2 fold change” value turned out to be 0.449.

Take RRIRDRPPRLPRPRPRPCVFPRP: the “shrunken log2 fold change” value worked out at 0.37.

RRIRQRPPRLPRPRPRPKQEPRP: the “shrunken log2 fold change” value was -0.0419.

Take RRIRDRPPRLPRPRPRPMDAPRP: the “shrunken log2 fold change” value is 0.251.

RRIRPRPPRLPRPRPRPDQCPRP: the “shrunken log2 fold change” value was 0.139.

In the case of RRIRWRPPRLPRPRPRPLNGPRP, the “shrunken log2 fold change” value was -0.0406.

Turning to RRIRHRPPRLPRPRPRPMNTPRP, the “shrunken log2 fold change” value is -0.616.

As for RRIRFRPPRLPRPRPRPLLRPRP, the “shrunken log2 fold change” value worked out at 0.0227.

As for RRIRIRPPRLPRPRPRPLCCPRP, the “shrunken log2 fold change” value was -0.317.

As to RRIRMRPPRLPRPRPRPPVPPRP, the “shrunken log2 fold change” value stood at 1.01.

As to RRIRQRPPRLPRPRPRPHIYPRP, the “shrunken log2 fold change” value is -0.0139.

In the case of RRIRDRPPRLPRPRPRPQRGPRP, the “shrunken log2 fold change” value turned out to be 0.0499.

Take RRIRDRPPRLPRPRPRPYTEPRP: the “shrunken log2 fold change” value is -0.0346.

In the case of RRIRRRPPRLPRPRPRPTNYPRP, the “shrunken log2 fold change” value was -0.0945.

Regarding RRIRCRPPRLPRPRPRPDTPPRP, the “shrunken log2 fold change” value came to 0.0764.

Consider RRIRIRPPRLPRPRPRPAWAPRP, for which the “shrunken log2 fold change” value came out at 0.243.

For RRIRHRPPRLPRPRPRPCGEPRP, the “shrunken log2 fold change” value was -0.0851.

As for RRIRGRPPRLPRPRPRPISDPRP, the “shrunken log2 fold change” value is 0.385.

In the case of RRIRYRPPRLPRPRPRPSYWPRP, the “shrunken log2 fold change” value was -0.716.

For the sequence RRIRYRPPRLPRPRPRPRIGPRP, the “shrunken log2 fold change” value was -0.471.

Take RRIRGRPPRLPRPRPRPIWQPRP: the “shrunken log2 fold change” value stood at 0.349.

Regarding RRIRNRPPRLPRPRPRPHACPRP, the “shrunken log2 fold change” value stood at 0.0169.

RRIRNRPPRLPRPRPRPYGPPRP: the “shrunken log2 fold change” value is -0.00663.

As for RRIRGRPPRLPRPRPRPLWVPRP, the “shrunken log2 fold change” value was determined as 0.472.

For RRIRVRPPRLPRPRPRPWTSPRP, the “shrunken log2 fold change” value was -0.329.

For RRIRCRPPRLPRPRPRPSRVPRP, the “shrunken log2 fold change” value stood at 0.247.

Turning to RRIRNRPPRLPRPRPRPSHGPRP, the “shrunken log2 fold change” value was determined as 0.108.

As to RRIRFRPPRLPRPRPRPWGTPRP, the “shrunken log2 fold change” value is -0.131.

Take RRIRKRPPRLPRPRPRPECRPRP: the “shrunken log2 fold change” value came out at 0.313.

On to RRIRWRPPRLPRPRPRPASIPRP, for which the “shrunken log2 fold change” value is -0.336.

As to RRIRIRPPRLPRPRPRPLSVPRP, the “shrunken log2 fold change” value is -0.254.

With RRIRDRPPRLPRPRPRPGYVPRP, the “shrunken log2 fold change” value is -0.153.

Turning to RRIRKRPPRLPRPRPRPQIKPRP, the “shrunken log2 fold change” value was determined as 0.0963.

Take RRIRKRPPRLPRPRPRPQKKPRP: the “shrunken log2 fold change” value was -0.111.

On to RRIRTRPPRLPRPRPRPTPVPRP, for which the “shrunken log2 fold change” value was found to be 0.313.

Take RRIRMRPPRLPRPRPRPYVIPRP: the “shrunken log2 fold change” value was -0.125.

As to RRIRTRPPRLPRPRPRPHFTPRP, the “shrunken log2 fold change” value is -0.149.

Consider RRIRLRPPRLPRPRPRPQGHPRP, for which the “shrunken log2 fold change” value worked out at 0.137.

Take RRIRRRPPRLPRPRPRPNCWPRP: the “shrunken log2 fold change” value is 0.228.

For RRIRTRPPRLPRPRPRPQTTPRP, the “shrunken log2 fold change” value is 0.0779.

As to RRIRARPPRLPRPRPRPGERPRP, the “shrunken log2 fold change” value amounted to 0.56.

Regarding RRIRKRPPRLPRPRPRPNLSPRP, the “shrunken log2 fold change” value was -0.0224.

Regarding RRIRSRPPRLPRPRPRPGIGPRP, the “shrunken log2 fold change” value came to 1.62.

Take RRIRTRPPRLPRPRPRPALRPRP: the “shrunken log2 fold change” value was 0.398.

As to RRIRERPPRLPRPRPRPIYAPRP, the “shrunken log2 fold change” value was -0.086.

In the case of RRIRARPPRLPRPRPRPMVHPRP, the “shrunken log2 fold change” value turned out to be 0.0572.

In the case of RRIRTRPPRLPRPRPRPHKPPRP, the “shrunken log2 fold change” value was -0.0565.

Take RRIRSRPPRLPRPRPRPFTWPRP: the “shrunken log2 fold change” value is -0.24.

For RRIRWRPPRLPRPRPRPEPYPRP, the “shrunken log2 fold change” value is 0.0876.

As for RRIRGRPPRLPRPRPRPVETPRP, the “shrunken log2 fold change” value came to 0.689.

For the sequence RRIRQRPPRLPRPRPRPSRDPRP, the “shrunken log2 fold change” value was -0.141.

RRIRNRPPRLPRPRPRPIQEPRP: the “shrunken log2 fold change” value was -0.0116.

In the case of RRIRSRPPRLPRPRPRPQHAPRP, the “shrunken log2 fold change” value is -0.153.

With RRIRDRPPRLPRPRPRPMVFPRP, the “shrunken log2 fold change” value is -0.0423.

For RRIRVRPPRLPRPRPRPDGCPRP, the “shrunken log2 fold change” value was 0.101.

In the case of RRIRDRPPRLPRPRPRPGDWPRP, the “shrunken log2 fold change” value stood at 0.92.

Take RRIRFRPPRLPRPRPRPTRWPRP: the “shrunken log2 fold change” value turned out to be 0.117.
